# Experimental data reported in PMC9021188 (Cell Discovery, 2022).
# B1: GW01 (antibody, V domains shown)
# VH: EVQLVESGGGVVQPGGSLRLSCAASGFRFDDHAMHWVRQAPGKGLEWVSVISGDGGSTYYADSVKGRFSISRDDSKNSLYLQMNSLRTEDTALYYCAKDRSYGPPDVFNYEYGMDVWGQGTTVTVSS
# VL: not shown
# notes: also called mAb GW01; antibody GW01
# Legend:
# RaTG13 RBD protein = RaTG13 RBD protein (Bat coronavirus RaTG13, UniProt A0ABF7PLN6); assay: ELISA; conditions: both partners purified
# SARS-CoV RBD protein = SARS-CoV RBD protein (SARS-CoV, UniProt P59594); assay: cell-based or functional assay
binder,measurement,setting,value
B1,binding result,RaTG13 RBD protein,binds
same,IC50 of neutralisation of pseudotyped SARS-CoV on Huh-7 cells,SARS-CoV RBD protein,19.3 ng/mL
